One data set addresses T1, βγ dimer (Homo sapiens, UniProt P14784+P31785).
T1 sequence (P14784 27-551): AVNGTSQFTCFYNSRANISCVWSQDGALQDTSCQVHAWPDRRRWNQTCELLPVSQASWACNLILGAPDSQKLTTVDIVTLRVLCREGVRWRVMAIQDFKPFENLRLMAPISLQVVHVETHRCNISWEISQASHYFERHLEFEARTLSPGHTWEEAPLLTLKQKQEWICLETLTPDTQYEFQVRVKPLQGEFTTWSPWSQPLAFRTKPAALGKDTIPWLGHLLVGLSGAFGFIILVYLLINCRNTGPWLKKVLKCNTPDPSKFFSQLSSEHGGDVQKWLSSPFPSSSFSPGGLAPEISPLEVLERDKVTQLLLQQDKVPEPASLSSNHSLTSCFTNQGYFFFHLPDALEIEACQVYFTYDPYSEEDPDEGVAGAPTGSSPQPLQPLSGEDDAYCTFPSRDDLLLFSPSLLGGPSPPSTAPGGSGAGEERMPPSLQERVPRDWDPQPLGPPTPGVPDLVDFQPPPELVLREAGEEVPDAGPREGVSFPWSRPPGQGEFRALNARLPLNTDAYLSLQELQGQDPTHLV
T1 sequence (P31785 23-369): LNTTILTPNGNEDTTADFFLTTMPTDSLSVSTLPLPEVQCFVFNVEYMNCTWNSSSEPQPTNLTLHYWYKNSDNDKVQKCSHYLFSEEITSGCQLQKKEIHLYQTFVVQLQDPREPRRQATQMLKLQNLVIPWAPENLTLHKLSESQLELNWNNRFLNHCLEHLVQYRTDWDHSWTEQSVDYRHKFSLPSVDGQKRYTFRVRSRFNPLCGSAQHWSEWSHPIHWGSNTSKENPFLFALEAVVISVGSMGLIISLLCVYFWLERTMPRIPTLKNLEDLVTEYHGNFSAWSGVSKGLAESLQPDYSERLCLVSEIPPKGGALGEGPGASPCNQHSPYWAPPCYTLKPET
To be noted: medium affinity; cited from earlier work.

For data set [1] the following is noted: in serum in vivo; cited from earlier work.
The next data set addresses T2, IL-2 protein (Homo sapiens, UniProt P60568, C145S).
T2 construct: made in house; host or cells: Escherichia coli
Description: Isothermal titration calorimetry (ITC), interaction with IL-2. Format: binding. The settings on record: SDS with IL-2, 7.69 mM sodium phosphate buffer, 25° C.; read-out: equilibrium dissociation constant Kd. The procedure: (1) Preparation of samples: • A. PEG2000-DSPE solution: dissolved in 10 mM sodium acetate buffer (pH=5.5), with a concentration of 0.5 mM; • B. SDS solution: dissolved in 7.69 mM sodium phosphate buffer (pH=7.6), with a concentration of 1.73 mM; • C. IL-2 solution: dissolved in 10 mM sodium acetate buffer (pH=5.5), with a concentration of 0.005 mM; • D. IL-2 solution: dissolved in 7.69 mM sodium phosphate buffer (pH=7.0), with a concentration of 0.0164 mM.
10 The MicroCal ITC 200 isothermal titration calorimeter and its supporting operating software from Malvern Panalytical Company were used. Refer to the table below for specific parameter settings:
(3) To determine the interaction between PEG2000-PE and IL-2, 40 μl sample A was added to the syringe, and 250 μl sample C was added to the sample cell. To determine the interaction between SDS and IL-2, 40 μl sample B was added to the syringe, and 250 μl sample D was added to the cell. […] After the reaction was completed, the measured heat change was integrated and subjected to reaction curve fitting (FIG. 4) to calculate various parameters of the interaction between the two samples, wherein the K value measured in the ITC is the binding constant, with a unit of M-1, and its reciprocal is the dissociation constant Kd of the two substances, with a unit of M. The smaller the Kd value, the stronger the affinity between the two substances.

Data on two compounds can be found in patent US20250108091A1, “PROTEIN FORMULATION, PREPARATION METHOD THEREFOR AND USE THEREOF” (BEIJING LIANGYUAN BIO-SCIENCE, LLC, priority 2022, published 2025).

T2 sequence (P60568 21-153 C145S): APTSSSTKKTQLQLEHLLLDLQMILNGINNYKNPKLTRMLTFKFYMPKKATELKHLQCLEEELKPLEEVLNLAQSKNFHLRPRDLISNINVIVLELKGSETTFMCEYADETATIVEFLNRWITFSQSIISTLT

On to “IL2: T cell growth factor, glycoprotein of four α-helices, molecular weight 15.5 Kd”, for which the Kd in the data set with βγ dimer is around 0.001 µM. Moreover, the half-life in data set [1] was 10 to 85 min.
On to `CCCCCCCCCCCCOS(=O)(=O)[O-].[Na+]` [SDS, sodium dodecyl sulfate], for which the Kd at IL-2 protein was around 37.3 µM.

For orientation: Kd means the concentration at which binding is half-saturated. As a reminder, the half-life is the time needed for the level to fall by half in the phase considered.
